Measurements as given in article PMC11761039.
Each block holds one substance with its values, some of them ahead of it.

What was measured:
[1] = molecular target: MBP-tagged G2L4 RT dimer interface Thumb mutant (R397/R398/R404A); experiment: native gel or EMSA
[2] = molecular target: MBP-tagged G2L4 RT dimer interface NTE + Thumb mutant (R12/Y15/R398A); experiment: native gel or EMSA
[3] = molecular target: MBP-tagged wild-type G2L4 RT; experiment: SEC

proportion of monomers [1]: 25%
Substance: MBP-tagged G2L4 RT dimer interface Thumb mutant (R397/R398/R404A) (enzyme)

proportion of monomers [2]: 36%
Substance: MBP-tagged G2L4 RT dimer interface NTE + Thumb mutant (R12/Y15/R398A) (enzyme)

Substance: MBP-tagged wild-type G2L4 RT (enzyme)
stoichiometry N [3]: 2
